Experimental data from PMC6434023, “A TonB-dependent transporter is required for secretion of protease PopC across the bacterial outer membrane” (Nature Communications, 2019).

Molecular target: T1, PopC expressed in E. coli (M. xanthus, UniProt Q1DFT5 1-475)
T1 construct: PopC of Myxococcus xanthus, expressed as 'native' PopC in E. coli; no tag is named; 'Native' probably means the untagged whole protein; also called native PopC; source: E. coli Rosetta-2(DE3) (WT or ΔtonB), IPTG-induced, in isolated membranes / cell fractions
T1 sequence (looked up): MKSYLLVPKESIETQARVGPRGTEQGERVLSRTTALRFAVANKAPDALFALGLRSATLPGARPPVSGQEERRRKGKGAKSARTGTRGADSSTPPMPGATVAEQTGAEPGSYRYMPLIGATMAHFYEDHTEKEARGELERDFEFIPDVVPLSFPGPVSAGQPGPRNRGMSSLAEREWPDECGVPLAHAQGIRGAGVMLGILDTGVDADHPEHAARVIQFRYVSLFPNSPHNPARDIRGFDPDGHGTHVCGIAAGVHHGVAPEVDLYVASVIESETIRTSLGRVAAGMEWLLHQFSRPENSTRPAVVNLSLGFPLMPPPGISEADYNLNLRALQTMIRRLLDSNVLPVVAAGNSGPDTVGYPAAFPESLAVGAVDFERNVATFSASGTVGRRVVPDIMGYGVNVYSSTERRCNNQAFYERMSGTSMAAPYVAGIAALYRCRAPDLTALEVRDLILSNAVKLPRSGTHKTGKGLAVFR
Test: affinity purification with mass spectrometry; the co-IP samples (α-PopC on E. coli membranes, WT and ΔtonB) analysed by label-free quantitative MS; iBAQ ratio of Oar with PopC over without PopC, normalised to the input
Settings: partners not purified

B1: Oar expressed in E. coli (natural protein, M. xanthus, UniProt P38370 27-1061, looked up)
chain: QSSTIIGTVIDAQSRQPAADVVVTATSPNLQGEQTVVTDAQGNYRIPQLPPGDYTLRFEKEQFKPYARSAIQLRLNRTIRVNVELLPEALGEVVEIVGAPPTIDVGSTTMGVNVDQEFIKRIAVARPGGKGGATRSFESLAELAPGAQNDNYGVSINGSTSPENGYVVDGLSTNDPAFGVNASPLSIEFVQDVNIITGGYMPEFGRSTGGVINAVTRSGSNEFHGSVFANWTPGTLEGTRKQIREEGTVITGQNQLQNLGDFGATLGGPILKDKLWFFAGFAPSFTRYQHTRTLNALRVDDEGNTIKDETDFTVADAIPGSARKYYADSRTIQYMGKLTYLINQDHNVSFALNGTPTSTGGLGKLSVNPQSGGLPGVLATRPGDFGLTETKANTTSLALKYAGAFADKKVLVDANLGWFHQTASTLPGDGSNLGDRTGLAGYSRMVYTTPRALTLFEALPEGQEGACGSTPEEQLVRSPVTGYGVGGPGFMSDQTLDRYQANAKATYLLNALGTHVFKAGVDVELLSFDQVKAYGGGVFFQEGSNYGVAGQGPAVHDARRYGYQTGPDSAVTQFTQVAKTTSTTVGGFLQDSWSIANRVTLNLGVRYDVQALYGGNGDLSLLLGNQWSPRIGAIVDPFANGRAKVFVNFARYYEQVPLNLMDRAFPGENRISARRSLAEPGQGTATSCDPSSFESQQATCNTDSNLLAIPESSRNVNRFYTGGTVGGTPVDPDIKAQSSDEIVVGAEYEVLANTRLGASYTHKDMNSVIEDMSRDDGNTYFLGNPGSGFAGEFPTPVRNYDNVTVYLNRTFADGWLAQANYTWSRLYGNYPGLFRPETGQLDPNILSDFDLIELLENRTGLLPFDRTHQIKVFGAKEFNISNALSASVGVSYRGSSGTPINYWGSHWAYLQDESFVLPRGAGGRTPWINTIDSNIGVNYRVSKDSVVSFTLDVFNLFNFQGVNTVDQTYTLRDIKPIPGGTPADLENLPGRVEFQDQAPRDEPFGSVDGDVNKNFKNPLSYQAPRQVRFGIRYTF
notes: Oar (MXAN_1450) of Myxococcus xanthus, expressed as 'native' Oar in E. coli; no tag is named; 'Native' probably means the untagged protein with its own signal peptide; it was found enriched in the E. coli outer membrane; also called native Oar; source: E. coli Rosetta-2(DE3) (WT or ΔtonB), IPTG-induced, in isolated membranes / cell fractions
For B1, the “fold enrichment of Oar in the α-PopC co-IP, with PopC over without PopC (iBAQ ratio), WT E. coli” value was 4.9 fold and the “fold enrichment of Oar in the α-PopC co-IP, with PopC over without PopC (iBAQ ratio), ΔtonB E. coli” value was 15.1 fold.
